Experimental data as given in PMC10896721.

What was measured:
[1] = biological target: cynomolgus monkey GLP-1R (cynomolgus monkey)
[2] = biological target: human GLP-1R (glucagon-like peptide-1 receptor) (human) (UniProt P43220)
[3] = biological target: mouse GLP-1R (mouse) (UniProt O35659)
[4] = biological target: T1, human GIPR (glucose-dependent insulinotropic polypeptide receptor) (human) (UniProt P48546)
T1 sequence: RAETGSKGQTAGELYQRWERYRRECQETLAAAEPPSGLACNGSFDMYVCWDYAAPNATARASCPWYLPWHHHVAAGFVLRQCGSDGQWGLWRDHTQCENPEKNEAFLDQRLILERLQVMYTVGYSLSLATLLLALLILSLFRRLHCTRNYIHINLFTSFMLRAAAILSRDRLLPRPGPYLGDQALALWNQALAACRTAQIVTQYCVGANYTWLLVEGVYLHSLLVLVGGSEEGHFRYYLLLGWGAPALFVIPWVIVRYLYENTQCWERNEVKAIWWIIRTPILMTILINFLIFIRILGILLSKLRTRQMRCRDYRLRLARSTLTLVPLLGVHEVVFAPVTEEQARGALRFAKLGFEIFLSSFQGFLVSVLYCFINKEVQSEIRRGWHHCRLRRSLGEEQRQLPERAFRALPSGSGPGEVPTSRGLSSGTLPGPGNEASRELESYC

Sequence of AMG 133 (maridebart cafraglutide) (VH): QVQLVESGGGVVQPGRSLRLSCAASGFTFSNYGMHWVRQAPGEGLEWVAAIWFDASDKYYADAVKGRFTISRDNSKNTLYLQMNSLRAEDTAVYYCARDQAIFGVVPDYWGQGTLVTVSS
Sequence of AMG 133 (maridebart cafraglutide) (VL): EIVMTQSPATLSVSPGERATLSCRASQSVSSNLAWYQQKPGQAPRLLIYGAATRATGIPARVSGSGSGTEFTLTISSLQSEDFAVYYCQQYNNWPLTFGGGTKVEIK
Sequence of UniProt P43220 (P43220 24-463): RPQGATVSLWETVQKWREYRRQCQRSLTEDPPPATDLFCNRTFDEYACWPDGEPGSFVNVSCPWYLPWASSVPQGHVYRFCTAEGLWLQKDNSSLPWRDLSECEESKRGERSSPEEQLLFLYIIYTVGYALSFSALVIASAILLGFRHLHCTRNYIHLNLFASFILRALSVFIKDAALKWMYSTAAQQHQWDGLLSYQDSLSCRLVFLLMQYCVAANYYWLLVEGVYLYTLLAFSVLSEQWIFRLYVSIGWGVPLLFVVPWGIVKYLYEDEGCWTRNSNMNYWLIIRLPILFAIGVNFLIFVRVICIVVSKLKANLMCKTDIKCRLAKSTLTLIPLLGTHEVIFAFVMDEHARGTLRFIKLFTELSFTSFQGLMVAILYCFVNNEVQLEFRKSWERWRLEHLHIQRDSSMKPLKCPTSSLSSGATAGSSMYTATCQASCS
Sequence of UniProt O35659 (O35659 22-463): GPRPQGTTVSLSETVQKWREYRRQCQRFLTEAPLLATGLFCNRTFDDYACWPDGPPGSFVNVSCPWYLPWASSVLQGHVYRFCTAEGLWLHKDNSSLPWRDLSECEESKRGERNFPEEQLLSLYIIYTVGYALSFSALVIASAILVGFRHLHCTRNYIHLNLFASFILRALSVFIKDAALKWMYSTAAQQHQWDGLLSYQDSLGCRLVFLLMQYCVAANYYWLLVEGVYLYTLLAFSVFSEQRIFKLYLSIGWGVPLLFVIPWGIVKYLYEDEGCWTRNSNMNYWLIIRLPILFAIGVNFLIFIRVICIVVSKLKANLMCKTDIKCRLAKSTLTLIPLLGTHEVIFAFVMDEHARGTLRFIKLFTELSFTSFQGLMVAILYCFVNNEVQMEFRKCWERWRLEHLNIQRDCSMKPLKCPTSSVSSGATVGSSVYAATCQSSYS

| Substance | EC50 of cAMP accumulation in CHO-AM1D cells expressing cynomolgus monkey GLP-1R [1] | EC50 of cAMP accumulation in CHO-K1 cells expressing human GLP-1R [2] | EC50 of cAMP accumulation in CHO-K1 cells expressing mouse GLP-1R [3] | EC50 of cAMP accumulation in HEK 293T cells expressing human GIPR [4] |
| --- | --- | --- | --- | --- |
| AMG 133 (maridebart cafraglutide) | 0.0057 nM | 0.0244 nM | 0.123 nM | – |
| Native GIP (glucose-dependent insulinotropic polypeptide) (from UniProt P09681 52-93) (ligand) | – | – | – | 0.0066 nM |
